Measurements reported in US20210009673A1, “METHODS FOR REGULATING BREAST CANCERS” (priority 2018, published 2021).

Experiments:
[1] = tested on: β-catenin; assay: PTN-stimulated tyrosine phosphorylation of β-catenin in COS-7 cells (immunoprecipitation, Western blot); format: cell-based
Procedure: (§1) FIG. 1: FIG. 1 illustrates in (A) PTN stimulation of tyrosine phosphorylation of β-catenin in cells that express RPTPβ/ζ and ALK. COS7 cells transiently expressing ALK and RPTPβ/ζ were stimulated with 10 ng PTN/ml. Cell lysates were prepared and used to immunoprecipitate β-catenin. The immunoprecipitates were analyzed in Western blots probed with anti-phosphotyrosine antibodies. Lane 1, cells transfected with ALK that were not stimulated with PTN. Lane 2, cells transfected with ALK stimulated with PTN. Lane 3, cells transfected with empty vector not stimulated with PTN. Lane 4, cells transfected with empty vector stimulated with PTN. […] The immunoprecipitates were analyzed in Western blots probed with anti-phosphotyrosine antibodies. […] Cell lysates were used to immunoprecipitate β-catenin and the immunoprecipitates were analyzed in Western blots probed with anti-phospho-tyrosine antibodies and reprobed with anti-β-catenin antibodies. […] MCF-7 cells that stably express EGFR/RPTPβ/ζ not transfected with ALK were analyzed as above. […] Lysates of MCF-7 cells and lysates of MCF-7 cells stimulated with EGF were used to immunoprecipitate β-catenin and the immunoprecipitates were analyzed in Western blots probed with anti-phospho-tyrosine antibodies and separately with anti-β-catenin antibodies. […]

[2] = tested on: β-catenin; assay: tyrosine phosphorylation of β-catenin in PTN-stimulated U87MG cells; format: cell-based, human; conditions: control U87MG cells; 50 ng PTN/ml
Procedure: as §1

[3] = tested on: Akt; assay: phosphorylation of Akt in PTN-stimulated HUVS cells; format: cell-based, human; conditions: PTN 50 ng/ml, 5 minutes, elevated at 20 minutes
Procedure: FIG. 11: FIG. 11 illustrates: human umbilical vein stromal cells not stimulated or stimulated with 50 ng/ml of PTN for 2, 5, 10 or 20 minutes were used to prepare cell lysates that were analyzed in Western blots probed with anti-phospho threonine 308 Akt (panel A), anti-phospho serine 473 Akt (panel B), anti-phospho-serine 9 GSK3β (panel C), anti-phospho-serine 33, 37 and […] β-catenin (panel D) or anti-actin antibodies (panel E). Akt was immunoprecipitated from those lysates using anti-Akt antibodies, incubated with a fusion peptide containing the 20 N-terminal amino acids of GSK3β and analyzed in Western-blots probed using anti-phospho-serine 9 GSK3β antibodies (panel F).
To pursue this pathway of nuclear import of β-catenin, HUVS cells were stimulated with PTN (50 ng/ml), lysed, and analyzed in Western blots probed with anti-phosphothreonine 308 Akt or anti-phosphoserine 473 Akt antibodies (FIG. 11, panel A and B). […]
The association of adaptor proteins that associate with specific phosphorylated sites in activated EGFR are responsible for the activation of phosphatidyl-inositol 3-kinase (PI3K). […] The cells were stimulated with PTN for 2, 5, 10, and 20 minutes, cell lysates were prepared, and the lysates were analyzed in Western blots probed with anti-phospho-Akt (Ser473), anti-phospho-GSKβ (Ser9), and anti-phospho-β-catenin (Thr42) antibodies. […]

[4] = tested on: Src; assay: phospho-Src tyrosine 416 Western blot in PTN-stimulated U87MG cells; format: cell-based, human; conditions: 50 ng PTN/ml for 5, 10, 15 minutes

B1: pleiotrophin (protein, UniProt P21246 33-168, looked up)
Pleiotrophin: GKKEKPEKKVKKSDCGEWQWSVCVPTSGDCGLGTREGTRTGAECKQTMKTQRCKIPCNWKKQFGAECKYQFQAWGECDLNTALKTRTGSLKRALHNAECQKTVTISKPCGKLTKPKPQAESKKKKKEGKKQEKMLD
B1 was tested, and the “tyrosine phosphorylation of β-catenin” value ([1]; COS-7 cells expressing RPTPβ/ζ alone) was “failed to stimulate”, the “increased tyrosine phosphorylation of β-catenin” value ([1]; COS-7 cells expressing both ALK and RPTPβ/ζ, 10 ng PTN/ml) was “about 3 fold” and the “phosphorylation of β-catenin” value [2] was “sharply increased”. The “phosphorylation of Akt threonine 308 and serine 473” value [3] was “rapid increase” and the “tyrosine phosphorylation of Src tyrosine 416” value [4] was “not increased”.
